Test results from patent publication US20140072558A1.

Molecular target: ACVR2B as used in surface plasmon resonance (UniProt Q13705)
Test: SPR; with 0.625 nM B09

ACVR2B as used in surface plasmon resonance, sequence (Q13705 19-134): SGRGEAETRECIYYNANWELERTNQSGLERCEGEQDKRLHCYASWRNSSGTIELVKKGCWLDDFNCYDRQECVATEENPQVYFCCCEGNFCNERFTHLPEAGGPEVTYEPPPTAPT

Kd: 4.07E-10 ?
Substance: water-soluble DLK1 treated together with the B09 antibody (from UniProt P80370 25-302)
